Laboratory results as given in US9617309B2, “Proline-locked stapled peptides and uses thereof” (President and Fellows of Harvard College, priority 2012, dated 2017).
Numbered stars: 1 amine (or outer) side, 2 acyl side, 3 side chain; on linkers, the order of the positions; unused ones are H or OH. Bridge positions count the residues as written; N and C are the ends. Square brackets hold non-standard residues; d marks the D form. Ends that are not written are not given here. Peptide text beside a SMILES is read from it. * marks the point of attachment. PR3 = (R)-N-(acetyl)-2-(2'-propenyl)proline, C=CC[C@@]1(C(=O)*)CCCN1C(C)=O; S3 = α-methyl,α-allylglycine, C=CC[C@](C)(N[*:1])C(=O)[*:2]; X1 = O=C([C@]1(CCCC=[*:3])CCCN1[*:1])[*:2]; X2 = O=C([C@]1(CC=[*:3])CCCN1[*:1])[*:2]; X3 = C[C@@](CC=[*:3])(N[*:1])C(=O)[*:2]; S8 = C=CCCCCCC[C@](C)(N)C(=O)O; R5 = C=CCCC[C@@](C)(N)C(=O)O; S5 = C=CCCC[C@](C)(N)C(=O)O

Experiments:
[1] = circular dichroism; conditions: 50 mM sodium phosphate (stated for FIG. 5; assumed for the rest), pH 8.0
[2] = CD measurements of peptide conformation and % helicity; assay type: physicochemical; conditions: 20° C.
From the text: The conformation of peptide 1 and 2 was investigated by CD measurements (FIG. 4).
(Peptide 1 of FIG. 2 corresponds to Peptide “1)” of FIG. 17, while Peptide 2 of FIG. 2 corresponds to Peptide “4)” of FIG. 17).

[3] = Variable temperature CD measurement of α-helix stability; assay type: physicochemical; conditions: 20° C. to 90° C.; 50 mM sodium phosphate buffer (pH 8.0), alone and with 100 mM NaCl, 1 M NaCl, and 10% TFE
From the text: These observations indicate that the proline stapled peptides adopt an α-helix conformation with extraordinary stability.

| Compound | helicity ([1]; ns °C) [%] | also measured |
| --- | --- | --- |
| CC(=O)N1CCC[C@]12CC=CCCCC1(CCCC=CCCCCCC[C@@](C)(C(=O)N[C@@H](C)C(=O)N[C@@H](C)C(=O)N[C@@H](Cc3c[nH]c4ccccc34)C(N)=O)NC(=O)[C@H]([C@@H](C)O)NC(=O)[C@H](CC(N)=O)NC(=O)[C@H](CCCNC(=N)N)NC(=O)[C@H](C)NC(=O)[C@H](CCCNC(=N)N)NC(=O)[C@H](CCCCN)NC1=O)NC(=O)[C@H](C)NC(=O)[C@H](C)NC2=O (stereo partly drawn) | 81 |  |
| CC(=O)N1CCC[C@]12CC=CCCCC1(CCCC=CCCC[C@](C)(C(=O)N[C@@H](CC(N)=O)C(=O)N[C@H](C(=O)N[C@@H](CCC(=O)O)C(=O)N[C@@H](C)C(=O)N[C@@H](C)C(=O)N[C@@H](Cc3c[nH]c4ccccc34)C(N)=O)[C@@H](C)O)NC(=O)[C@H](C)NC(=O)[C@H](CCCNC(=N)N)NC(=O)[C@H](CCCCN)NC1=O)NC(=O)[C@H](C)NC(=O)[C@H](C)NC2=O (stereo partly drawn) | 47 |  |
| CC(=O)N1CCC[C@]12CC=CC[C@@](C)(C(=O)N[C@@H](CCCCN)C(=O)N[C@@H](CCCNC(=N)N)C(=O)N[C@@H](C)C(=O)N[C@@H](CCCNC(=N)N)C(=O)N[C@@H](CC(N)=O)C(=O)N[C@H](C(=O)N[C@@H](CCC(=O)O)C(=O)N[C@]1(C)CC=CCCNC(=O)[C@H](Cc3c[nH]c4ccccc34)NC(=O)[C@H](C)NC1=O)[C@@H](C)O)NC(=O)[C@H](C)NC(=O)[C@H](C)NC2=O | 64 |  |
| CC(=O)N1CCC[C@]12CC=CC[C@@](C)(C(=O)N[C@@H](CCCCN)C(=O)N[C@@H](CCCNC(=N)N)C(=O)N[C@@H](C)C(=O)N[C@@H](CCCNC(=N)N)C(=O)N[C@@H](CC(N)=O)C(=O)N[C@H](C(=O)N[C@@H](CCC(=O)O)C(=O)N[C@]1(C)CC=CCNC(=O)[C@H](Cc3c[nH]c4ccccc34)NC(=O)[C@H](C)NC1=O)[C@@H](C)O)NC(=O)[C@H](C)NC(=O)[C@H](C)NC2=O | 64 |  |
| CC(=O)N1CCC[C@]12CC=CC[C@@](C)(C(=O)N[C@@H](CCCCN)C(=O)N[C@@H](CCCNC(=N)N)C(=O)N[C@@H](C)C(=O)N[C@@H](CCCNC(=N)N)C(=O)N[C@@H](CC(N)=O)C(=O)N[C@H](C(=O)N[C@@H](CCC(=O)O)C(=O)N[C@]1(C)CCC=CCCNC(=O)[C@H](Cc3c[nH]c4ccccc34)NC(=O)[C@H](C)NC1=O)[C@@H](C)O)NC(=O)[C@H](C)NC(=O)[C@H](C)NC2=O | 80 |  |
| CC(=O)N1CCC[C@]12CC=CC[C@@](C)(C(=O)N[C@@H](CCCCN)C(=O)N[C@@H](CCCNC(=N)N)C(=O)N[C@@H](C)C(=O)N[C@@H](CCCNC(=N)N)C(=O)N[C@@H](CC(N)=O)C(=O)N[C@H](C(=O)N[C@@H](CCC(=O)O)C(=O)N[C@]1(C)CCC=CCNC(=O)[C@H](Cc3c[nH]c4ccccc34)NC(=O)[C@H](C)NC1=O)[C@@H](C)O)NC(=O)[C@H](C)NC(=O)[C@H](C)NC2=O | 69 |  |
| CC(=O)N1CCC[C@]12CC=CC[C@@](C)(C(=O)N[C@@H](CCCCN)C(=O)N[C@@H](CCCNC(=N)N)C(=O)N[C@@H](C)C(=O)N[C@@H](CCCNC(=N)N)C(=O)N[C@@H](CC(N)=O)C(=O)N[C@H](C(=O)N[C@@H](CCC(=O)O)C(=O)N[C@]1(C)CCCC=CCNC(=O)[C@H](Cc3c[nH]c4ccccc34)NC(=O)[C@H](C)NC1=O)[C@@H](C)O)NC(=O)[C@H](C)NC(=O)[C@H](C)NC2=O | 73 |  |
| CC(=O)N[C@]1(C)CCCC=CCCCCCC[C@@](C)(C(=O)N[C@@H](CC(N)=O)C(=O)N[C@H](C(=O)N[C@@H](CCC(=O)O)C(=O)N[C@@H](C)C(=O)N[C@@H](C)C(=O)N[C@@H](Cc2c[nH]c3ccccc23)C(N)=O)[C@@H](C)O)NC(=O)[C@H](C)NC(=O)[C@H](CCCNC(=N)N)NC(=O)[C@H](CCCCN)NC(=O)[C@H](CC(C)C)NC(=O)[C@H](C)NC(=O)[C@H](C)NC1=O (Ac-[R5]AALKRA[S8]NTEAAW-NH2; staple 1-8) | 48 |  |
| CC(=O)N1CCC[C@]12CCCC=CCCCCCC[C@@](C)(C(=O)N[C@@H](CC(N)=O)C(=O)N[C@H](C(=O)N[C@@H](CCC(=O)O)C(=O)N[C@@H](C)C(=O)N[C@@H](C)C(=O)N[C@@H](Cc1c[nH]c3ccccc13)C(N)=O)[C@@H](C)O)NC(=O)[C@H](C)NC(=O)[C@H](CCCNC(=N)N)NC(=O)[C@H](CCCCN)NC(=O)[C@H](CC(C)C)NC(=O)[C@H](C)NC(=O)[C@H](C)NC2=O (Ac-[X1]AALKRA[S8]NTEAAW-NH2; staple 1-8) | 61 |  |
| CC(=O)N1CCC[C@]12C/C=C\CCC[C@@](C)(C(=O)N[C@@H](CCCCN)C(=O)N[C@@H](CCCNC(=N)N)C(=O)N[C@@H](C)C(=O)N[C@@H](CCCNC(=N)N)C(=O)N[C@@H](CC(N)=O)C(=O)N[C@H](C(=O)N[C@@H](CCC(=O)O)C(=O)N[C@@H](C)C(=O)N[C@@H](C)C(=O)N[C@@H](Cc1c[nH]c3ccccc13)C(N)=O)[C@@H](C)O)NC(=O)[C@H](C)NC(=O)[C@H](C)NC2=O (Ac-[X2]AA[S5]KRARNTEAAW-NH2; staple (Z) 1-4) |  | helicity ([1]; 20 °C): 44% |
| CC(=O)N1CCC[C@]12CC=CC[C@@](C)(C(=O)N[C@@H](C)C(=O)N[C@@H](C)C(=O)N[C@@H](C)C(=O)N[C@@H](Cc1c[nH]c3ccccc13)C(N)=O)NC(=O)[C@H](C)NC(=O)[C@H](C)NC2=O (Ac-[X2]AA[X3]AAAW-NH2; staple 1-4) | 70 |  |
| CC(=O)N1CCC[C@]12C/C=C\C[C@@](C)(C(=O)N[C@@H](CCCCN)C(=O)N[C@@H](CCCNC(=N)N)C(=O)N[C@@H](C)C(=O)N[C@@H](CCCNC(=N)N)C(=O)N[C@@H](CC(N)=O)C(=O)N[C@H](C(=O)N[C@@H](CCC(=O)O)C(=O)N[C@@H](C)C(=O)N[C@@H](C)C(=O)N[C@@H](Cc1c[nH]c3ccccc13)C(N)=O)[C@@H](C)O)NC(=O)[C@H](C)NC(=O)[C@H](C)NC2=O (Ac-[X2]AA[X3]KRARNTEAAW-NH2; staple (Z) 1-4) |  | helicity ([1]; 20 °C): 66% |
| peptide 2: Pro-locked peptide with partial basic region of GCN4, crosslink between PR3 and S3; Peptide "4)" of FIG. 17 (SEQ ID NO:2) ([PR3]AA[S3]KRARNTEAAW; staple 1-4; also: olefin Z-isomer) |  | % helicity [2]: 67%; conformation by CD [2]: (X-helix; α-helix conformation on heating [3]: completely maintained |
